Reference: publication PMC5114395

Target: Ku heterodimer (Ku70 and Ku80) (UniProt P12956)
UniProt P12956, sequence (P12956 whole entry, chain 1 of 2): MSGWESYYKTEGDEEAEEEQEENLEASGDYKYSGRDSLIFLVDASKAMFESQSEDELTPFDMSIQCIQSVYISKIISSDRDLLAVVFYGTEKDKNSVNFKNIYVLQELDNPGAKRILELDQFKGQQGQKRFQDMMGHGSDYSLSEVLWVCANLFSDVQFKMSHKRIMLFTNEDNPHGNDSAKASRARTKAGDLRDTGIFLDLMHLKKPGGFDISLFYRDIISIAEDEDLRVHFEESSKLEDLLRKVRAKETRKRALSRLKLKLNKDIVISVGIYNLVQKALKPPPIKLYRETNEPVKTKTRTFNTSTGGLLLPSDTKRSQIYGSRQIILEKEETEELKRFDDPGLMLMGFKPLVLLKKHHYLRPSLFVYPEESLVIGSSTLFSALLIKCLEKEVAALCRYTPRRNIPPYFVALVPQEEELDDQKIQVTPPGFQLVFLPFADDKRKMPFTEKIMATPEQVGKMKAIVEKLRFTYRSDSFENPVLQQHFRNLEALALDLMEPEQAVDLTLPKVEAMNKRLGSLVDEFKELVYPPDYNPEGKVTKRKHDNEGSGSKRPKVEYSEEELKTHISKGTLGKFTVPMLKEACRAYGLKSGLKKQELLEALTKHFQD
UniProt P12956, sequence (P13010 whole entry, chain 2 of 2, further chain): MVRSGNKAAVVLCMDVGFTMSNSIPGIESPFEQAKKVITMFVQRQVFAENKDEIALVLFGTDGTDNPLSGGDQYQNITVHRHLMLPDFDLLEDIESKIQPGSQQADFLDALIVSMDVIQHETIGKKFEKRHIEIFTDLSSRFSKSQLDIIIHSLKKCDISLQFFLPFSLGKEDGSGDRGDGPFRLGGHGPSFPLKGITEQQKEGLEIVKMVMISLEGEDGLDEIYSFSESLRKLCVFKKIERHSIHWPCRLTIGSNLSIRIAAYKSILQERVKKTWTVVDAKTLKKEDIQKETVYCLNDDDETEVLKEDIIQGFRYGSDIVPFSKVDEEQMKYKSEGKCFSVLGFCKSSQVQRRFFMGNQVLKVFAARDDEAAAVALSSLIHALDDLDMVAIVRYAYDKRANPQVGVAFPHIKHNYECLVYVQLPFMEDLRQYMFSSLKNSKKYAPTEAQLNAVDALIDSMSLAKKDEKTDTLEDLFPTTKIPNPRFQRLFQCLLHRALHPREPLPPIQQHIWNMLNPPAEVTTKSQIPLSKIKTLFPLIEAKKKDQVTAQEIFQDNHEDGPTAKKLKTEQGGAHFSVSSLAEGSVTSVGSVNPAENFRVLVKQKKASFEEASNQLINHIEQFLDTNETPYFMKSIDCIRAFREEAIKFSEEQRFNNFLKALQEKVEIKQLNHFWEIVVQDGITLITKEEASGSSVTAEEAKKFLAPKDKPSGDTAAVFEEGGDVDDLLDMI

NHEJ efficiency of blunt-ended DNA with Ku, DNA-PKcs, Artemis, X4·LIV and Pol μ, without or with 500 nM PAXX (Fig. 7B, lanes 12–15): 2 fold
Substance: PAXX (paralog of XRCC4 and XLF) (from UniProt Q9BUH6 1-204) (natural protein)
